Literature values, collected in PMC11166923.

Target: integrin β1D cytoplasmic tail (Homo sapiens) (UniProt P05556)
Sequence of UniProt P05556 (P05556 752-798): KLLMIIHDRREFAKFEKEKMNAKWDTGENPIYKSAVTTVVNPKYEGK

Kd: 30 µM
Substance: Talin-2 (from UniProt Q9Y4G6)
